Earlier results in publication PMC8834348.

Legend:
[1] = target: flotillin 2 (Homo sapiens) (UniProt Q14254)
[2] = target: flotillin 1 (Homo sapiens) (UniProt O75955)
UniProt O75955, sequence (O75955 whole entry): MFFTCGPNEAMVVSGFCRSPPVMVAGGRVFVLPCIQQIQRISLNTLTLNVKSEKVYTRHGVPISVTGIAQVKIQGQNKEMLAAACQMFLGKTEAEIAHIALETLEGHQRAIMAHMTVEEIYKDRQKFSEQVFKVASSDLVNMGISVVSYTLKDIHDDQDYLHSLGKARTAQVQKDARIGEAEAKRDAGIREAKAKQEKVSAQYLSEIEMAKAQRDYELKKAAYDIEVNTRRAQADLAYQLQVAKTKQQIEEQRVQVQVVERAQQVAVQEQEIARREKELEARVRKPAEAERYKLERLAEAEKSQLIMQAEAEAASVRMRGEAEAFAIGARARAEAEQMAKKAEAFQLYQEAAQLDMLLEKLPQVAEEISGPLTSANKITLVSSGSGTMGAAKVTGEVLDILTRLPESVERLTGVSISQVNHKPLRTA

UniProt Q14254, sequence (Q14254 2-428): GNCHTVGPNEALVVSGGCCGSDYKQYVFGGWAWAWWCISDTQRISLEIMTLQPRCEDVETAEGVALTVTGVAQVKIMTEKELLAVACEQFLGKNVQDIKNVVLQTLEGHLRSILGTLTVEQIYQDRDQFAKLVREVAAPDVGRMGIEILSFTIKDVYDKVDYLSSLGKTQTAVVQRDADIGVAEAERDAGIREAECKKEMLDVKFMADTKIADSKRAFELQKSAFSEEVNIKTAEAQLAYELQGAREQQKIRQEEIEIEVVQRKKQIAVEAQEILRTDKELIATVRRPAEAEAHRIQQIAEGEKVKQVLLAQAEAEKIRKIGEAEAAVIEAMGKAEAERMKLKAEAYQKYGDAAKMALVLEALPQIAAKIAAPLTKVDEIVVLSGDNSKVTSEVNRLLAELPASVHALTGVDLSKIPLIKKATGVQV

Kd [1]: 30 nM
Kd [2]: 30 nM
Substance: MPP1 D5 domain (from UniProt Q00013)
